Source: article PMC6779109, “The Glutamate Receptor-Like Protein GLR3.7 Interacts With 14-3-3ω and Participates in Salt Stress Response in Arabidopsis thaliana” (Frontiers in Plant Science, 2019)
Where no end group is shown, it is not given here.

T1: 6His-14-3-3ω recombinant protein (Arabidopsis thaliana, UniProt Q01525 1-259)
T1 construct: 14-3-3ω (GF14/omega) of Arabidopsis thaliana; also called At14-3-3ω; GF14/omega; source: E. coli, purified (Ni-NTA)
T1 sequence (looked up): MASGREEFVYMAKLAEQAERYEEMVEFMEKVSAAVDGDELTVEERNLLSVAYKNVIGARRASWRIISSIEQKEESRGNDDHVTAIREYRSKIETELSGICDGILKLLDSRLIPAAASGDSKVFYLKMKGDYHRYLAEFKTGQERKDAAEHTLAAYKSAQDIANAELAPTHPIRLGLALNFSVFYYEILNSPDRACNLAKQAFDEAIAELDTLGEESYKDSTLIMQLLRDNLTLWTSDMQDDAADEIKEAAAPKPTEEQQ

B1: GST-GLR3.7 P0 recombinant fusion peptide (nonphosphorylated) (peptide)
chain: RYRRMERTSSMPRA
modifications: also: GST fusion
notes: C-terminal fragment of AtGLR3.7 holding Thr-858, Ser-859 and Ser-860; Cloned between AscI and NotI of the NRV vector (GST, RFP, Strep-tags; Curran et al., 2011) with the amino acids APG after the restriction site; fusion protein about 55 kD; also called G-P0; G-GLR3.7 P0; not shown: RFP (from the NRV vector)
B2: Phosphorylated GST-GLR3.7 P0 recombinant fusion peptide (peptide)
chain: RYRRMERTSSMPRA
modifications: also: phosphorylated, site not given here, fused to GST
notes: C-terminal fragment of AtGLR3.7 holding Thr-858, Ser-859 and Ser-860; also called G-P0-phosphorylated fusion peptide; phosphorylated G-GLR3.7 P0; not shown: RFP (from the NRV vector)

Biological target: T1, 6His-14-3-3ω recombinant protein
Test: quartz crystal microbalance; GST fusion peptide coated on the sensor to saturation, 6His-14-3-3ω injected into PBS; AFFINIX QN μ, Kd by AQUA software
Details: both partners purified

| Binder | Kd |
| --- | --- |
| B1 | 1770 nM |
| B2 | 2.31 nM |
